System: bovine brain microvascular endothelial cells (BBMVECs)
Experiment: Flow cytometry binding of FITC-labeled proteins to BBMVECs
Conditions: for shift in fluorescence: FITC-labeled protein incubated with BBMVECs at 4° C. (on ice) for 15 minutes; for % of the cells that bind (strongly) to the protein: BBMVECs, 15 minutes
Method: The three E. coli recombinant proteins (SfaS, SfaA, OmpA) produced in Example 1 are labeled with fluorescein isothiocyanate (FITC) to allow fluorescent detection of proteins. The proteins are labeled using the Thermo-Fisher Pierce FITC labeling kit (Thermo Fisher Scientific Inc., Waltham, Mass.) according to the manufacturer's protocol. The amounts of protein used for the labeling reaction are 0.75 mg (SfaS), 0.8 mg (OmpA) and 1.25 mg (SfaA).
Flow cytometry is performed by incubating the labeled proteins with BBMVECs. These cells are procured from Cell Applications, Inc (San Diego, Calif.). Cells are mixed with FITC proteins (individually) and incubated on ice or at 37° C. for 15 minutes, then washed, and sorted with flow cytometry.

Molecule | shift in fluorescence | % of the cells that bind (strongly) to the protein (4° C. (on ice)) | % of the cells that bind (strongly) to the protein (37° C.)
SfaS: Recombinant His-tagged S fimbriae protein sfaS variant from E. coli CFT073, SEQ ID NO: 2 (protein, His tag; E. coli) MASMTGGQQMGRGSMVDTTITVTGRVLPRTCTIGNGGNPNATVVLDNAYTSDLIAANSTSQWKNFSLTLTNCQNVNNVTATFGGTAENTNYYRNTGDATNIMVELQEQGNGNTPLKVGSTKVVTVSNGQATFNLKVRAVSKGNAGAGSINSQITVTYTYALEHHHHHH | less significant shift |  | 
SfaA: Recombinant His-tagged S fimbriae protein sfaA variant from E. coli CFT073, SEQ ID NO: 4 (protein, His tag; E. coli) MKYLLPTAAAGLLLLAAQPAMAMDIGINGTGSMGTVHFKGEVVNAACAVNTNSFDQTVNLGQVRSERLKVDGAKSNPVGFTIELNDCDSQVSAGAGIVFSGPAVTGKTDVLALQSSAAGSATNVGVQTDHTGKVVPLDGTASSTFTLTDGTNKIPFQAVYYATGQATAGIANADATFKVQYQLEHHHHHH | significant shift | ~37% | ~10%

Reference: patent US20100330158A1, “PROTEIN-ASSISTED DRUG DELIVERY SYSTEM FOR THE TARGETED ADMINISTRATION OF ACTIVE AGENTS” (InnoPharma, LLC, priority 2009, published 2010)
